Laboratory results: the DeepSol protein solubility set

Assay: soluble on expression in E. coli; label from the status in PepcDB or PDB records

| Sequence | soluble on expression in E. coli |
| --- | --- |
| GPGSMMMQRSQKMLLDPASFIERPPRNTLFNIVPQGHEYVVERLGRYHRTLDSGWWVVVPFIDKIRYNYNVKEQGIEIPNQSAITSDNVMVEIDGVLFLKIVDSCKASYNIENPVFNLINLAQTTMRSEIGRMSLDSLFRERASLNQSTVEVLRREANEWGIECKRYEIRDIVVSELVRRSMDLQAEAERKKRKLILESEGESTATINRANGMKIAQQCVADAEKYTAERQSEGAAAAIRVKAAAVSDNISIVSDAIEKAK | not soluble |
| MAYPGHPGAGGGYYPGGYGGAPGGPAFPGQTQDPLYGYFAAVAGQDGQIDADELQRCLTQSGIAGGYKPFNLETCRLMVSMLDRDMSGTMGFNEFKELWAVLNGWRQHFISLDTDRSGTVDPQELQKALTTMGFRLSPQAVNSIAKRYSTNGKITFDDYIACCVKLRALTDSFRRRDTAQQGVVNFPYDDFIQCVMSV | soluble |
| ADVILFPSKNGAVTFTHKRHSEFVRECRSCHEKTPGKIRNFGKDYAHKTCKGCHEVRGAGPTKCKLCHTG | soluble |
| MGSDKIHHHHHHMYEDELIFLEKTASIDIFEYSEQGIKTILDSPKHYNHGLMIRAAKLSREGFYSLVKYNSSYMLLVPLAKDKGLILSPKIDSLNNSESSFSNIDFINHSTSLAELAYFLYTKESAPNWNRVIYNLNEISDPVKQVQPMKNLHAFHRYANKMVDYFAQLDDKKFKLYINKMKSCQVFGDTLTTSNVIRGEKDILIDIISKLTDRSEKEGLPFEKVVFIQSVSVQKIELQANILNFNGWLEEIPYAYFNELKKWRENLFIDKADKIERYLKLNSRENIKLKDISKELGISEQSLNTIFKKKYGMTTKKYLIELKIENDKELLTTTELKIHDISEYLSFIDESYFISTFNKSCGMTPSKYRQNYIDKLLNKKSV | not soluble |
| MSLNTGINCPFDCGLCARHRSHTNLLNIVLTNRCNLSCWYCFFYAREGEPVYEPTLEQIRMMLRNAKKENPIGANAVQFTGGEPTLRDDLIEIIKIAKEEGYDHVQLNTDGIRLAFEPELVKKIREAGVNTLYLSYDGMTPQTNWKNHWEIPLIFENVRKAGGPGIVLVPTLIRNVNDHEAGAIINFGLNHLDIVRGVNFQPISLVGRVPKKERQRFRITIAGAIKKIEEQTNGAISRDDWYPIPIAGYIARFFEAFTGKHYYMTSHYACGAATYVFLDKEEKKVIPIPRFIDVEGFVEFLVEKAEEIERARFKGLAKLKAIGETVFIKFKQFYDEKYAPKGLDVLGLIKNAFMHGNYDALGQFHTKTLFLGMMHFMDEYNYDVERVERCVIHYAMPDGRIVPFCTFNVIPEIYRDKVQRQFSYSWEEWKKLHPDWDYKKDKYFRTREFVEKMKNSELYRKTYIDIVNYFEEGHHHHHH | soluble |
| MGSDKIHHHHHHMSELNAQQVVDYLQHHPDFLIQHPELLAQLELQQQAQGATSLVHIQQRQLREHNTLLKNQIASMNKYAAQNEQVYRLFSLCHQQLCSNNDFDALASNLQDIICSNPDISDCRLVKYDTKYAQLVEHRLSNSGHYLGRINQQERDLLFSDTAQSTAIYLIGDINKPIAILAFASNNANHFEPAQDTLFVLDFVVALQSRLLELA | not soluble |
| MGSDKIHHHHHHMNDYDNNSNINEDAWNKETYSAWVKRFGTPDTAAKKISKDPSKILSVLHEKLGDVKGKKIMNIMGSNGSKAVALALLGADVTVVDFSKGNMDYALDLAKEADVKIDYILSDILKLPEDKLTADYDIVFAEMGIIHYFIDLKPFIKTINRLLKEGGLFVLRDFHPVSTKLITSRGSTAKVRKHKVTGDYFDTSLEEKDAAFSKYLIDNKEPEKVLLRKWTLGEIVTSVAEGGFKIKKLDEEPNLSCDNFDKGIPKSFTLTSEKLS | not soluble |
| MGSDKIHHHHHHMILLNYSQCFCLHNESRQKIAPSCWLNIGVHYMRIQQLRDLLEYVANCRLDMAQLYGRLNNQADSARVKMMLEYFESHQKHVAEKLRDYMDEAPVRVLDTWYKDFVFEDFTKRCQDTMLPANMNEDDVLNLHLDLENRLIGLLEKTVNSTTAEDARTALEGLIRVEKIQQQRLVHSTIRMDDI | not soluble |
| MSLDVTDAQAIADHWGRGDVFGLIVAALNQMAKPLDGLTVEELAPVDHFHSRGFPATVEFADRLPINAGEQILDIGCGLGGPARYMAKRFQCRVSGIDITGPFVEAANRLTALLHMEQQVEIAQGNGQRLPYPDSCFDGAYTQDVTMNVAERAGFFAEAYRVLKPGAFFALSEHGLGPQGKPHYPVPWSDDGTGAYLTAPAETRAILERTGFEAITVEDTGAKCVAGYGKVIERAEKGALPPLGLHLFMGESMVEKMRNAARNIEEGRTHPIQLICRKEGHHHHHH | soluble |
| MGSDKIHHHHHHMTIMSIGIIIASHGEFAAGIHQSGSMIFGEQEKVQVVTFMPNEGPDDLYAKFNNAVAAFDAEDEVLVLADLWSGSPFNQASRVMGENPERKFAIITGLNLPMLIQAYTERLMDAAAGVEKVAANIIKEAKDGIKALPEELNPVEEVASAAAAPVAQTAIPEGTVIGDGKLKINLARLDTRLLHGQVATAWTPDSKANRIIVASDNVAKDDLRKELIKQAAPGNVKANVVPIQKLIEISKDPRFGETHALILFETPQDALRAIEGGVPIKTLNVGSMAHSTGKTLVNTVLSMDKEDVATFEKMRDLGVEFDVRKVPNDSKKDLFDLINKANVK | not soluble |
| AHHHHHHGSEKQGEKMKRLGKVLHYAKQGFLIVRTNWVPSLNDRVVDKRLQFVGIVKDVFGPVKMPYVAIKPKVSNPEIYVGEVLYVDERKRKESPKKNKEKRMKKKKRLNR | not soluble |
| MEYFDMRKMSVNLWRNAAGETREICTFPPAKRDFYWRASIASIAANGEFSLFPGMERIVTLLEGGEMLLESADRFNHTLKPFQPFAFAADQVVKAKLTAGQMSMDFNIMTRLDVCKAKVRIAERTFTTFGSRGGVVFVINGAWQLGDKLLTTDQGACWFDGRHTLRLLQPQGKLLFSEINWLAGHSPDQVQ | soluble |
| MGHHHHHHSHMACLNPVPKLYRSVIEDVIEGVRNLFAEEGIEEQVLKDLKQLWETKVLQSKATEDFFRNSIQSPLFTLQLPHSLHQTLQSSTASLVIPAGRTLPSFTTAELGTSNSSANFTFPGYPIHVPAGVTLQTVSGHLYKVNVPIMVTETSGRAGILQHPIQQVFQQLGQPSVIQTSVPQLNPWSLQATTEKSQRIETVLQQPAILPSGPVDRKHLENATSDILVSPGNEHKIVPEALLCHQESSHYISLPGVVFSPQVSQTNSD | not soluble |
| MEKMIITAAICGAEVLKEHNPAVPYTVEECVREAKSAYDAGASIIHLHVRYDDGTPTQDRNRFKEVMEAIKAVCPDVIIQPSTGGAVGMTNDERLQPTELFPEMATLDCGTLNFGGDEVFTNTENTIKYFGEKMIERGIKPELEVFDKSMIDMALRLHRKGYIQSPMHFDFVMGVNGGISGEMRDFVFLRESIPADATYTVAGVGRYEFPLAALAIIDGGHVRVGFEDNVYISKGVLARSNGELVEKVVRMAKEMGREIATPAEARRILGLSK | soluble |
| MRRVLVGAAALITALLVLTGCTKSISGTAVKAGGAGVPRNNNSQERYPNLLKECEVLTTDILAKTVGADPLDIQSTFVGAICRWQAANPAGLIDITRFWFEQGSLSNERKVAEGLKYQVETRAIQGVDSIVMRTGDPNGACGVASDAAGVVGWWVNPQAPGIDACGQAIKLMELTLATNA | soluble |
| MGSDKIHHHHHHDKNSAPGFSFTTDSILTLTFDKELDAAFVGVGTQNYNPVGMRRSGDTLFIANRAEGSDGVWVVRASTGELLYSLTGWTYNGKNEKFDNQVMDVAVSSDYIFVVNRSSRIDLFRRNDYSYVTTIGRTGWQSSSLLQCEAAEVAGDKLFIRDKQKIKVVQISDCTPENRFKVPVFAQNTDSTSSNNGFNLESVARHEGLIYVSDYETSRILVIDPATVAVKGEPVRFLRSYRMPNKPLSMGFFQNEMYVVCANNCIVRVDLRTGKELGSYSSFAGGVGLGTPGRLLFHNDTFYLAGRNANAPRLIQGKVMFVEISELD | not soluble |
